Test results reported in publication PMC12488874, “Structural insights into Wnt/β-catenin signaling regulation by LGR4, R-spondin, and ZNRF3” (Nature Communications, 2025).
Blank lines part the entries; values can stand above or below the molecule they belong to.

B1: human ZNRF3 (residues 56-267, ECD-TMD) (domain or fragment, UniProt Q9ULT6 56-267, looked up)
chain: KETAFVEVVLFESSPSGDYTTYTTGLTGRFSRAGATLSAEGEIVQMHPLGLCNNNDEEDLYEYGWVGVVKLEQPELDPKPCLTVLGKAKRAVQRGATAVIFDVSENPEAIDQLNQGSEDPLKRPVVYVKGADAIKLMNIVNKQKVARARIQHRPPRQPTEYFDMGIFLAFFVVVSLVCLILLVKIKLKQRRSQNSMNRLAVQALEKMETRKF
notes: human ZNRF3, residues 56-267 (ECD-TMD), UniProt Q9ULT6; Cloned with the rabbit immunoglobulin heavy chain V signal peptide at the N-terminus in place of its own; no tag is named for this construct; also called Zinc and Ring Finger 3

Key:
[1] = biological target: human ZNRF3 (residues 56-267, ECD-TMD) (human) (UniProt Q9ULT6)
[2] = biological target: T1, human LGR4 (residues 1-822), ECD and TMD, expressed in Expi293F cells (human, UniProt Q9BXB1 25-822); test: cryo-EM structure; LGR4, RSPO2 and ZNRF3 co-expressed in Expi293F, complex solubilised in LMNG/CHS and purified by anti-DYKDDDDK resin (FLAG on LGR4) and SEC in 0.01% GDN; two complexes in one sample, 1:1:2 (3.2 Å) and 2:2:2 (3.5 Å); conditions: both partners purified
T1 construct: signal peptide in the construct; human LGR4, residues 1-822 (ECD and TMD), UniProt Q9BXB1; no cleavage is described. pEZT-BM vector; not shown: FLAG, C-terminal, kept

[3] = biological target: the molecule itself; test: as above
[4] = biological target: T2, human LGR4 (residues 1-822), ECD and TMD, expressed in ExpiSf9 cells (human, UniProt Q9BXB1 25-822); test: cryo-EM structure; individually purified LGR4 and RSPO2 mixed at a 1:2 ratio for 3 hours at 4 °C, complex isolated by SEC (25 mM HEPES-NaOH pH 7.5, 0.15 M NaCl, 0.01% GDN); overall resolution 4.0 Å; conditions: both partners purified
T2 construct: signal peptide in the construct; human LGR4, residues 1-822 (ECD and TMD, without the ICD), UniProt Q9BXB1; no cleavage is described; also called Leucine-rich repeat-containing G protein-coupled receptor 4; apo LGR4; source: ExpiSf9 (baculovirus), membrane fraction solubilised in LMNG/CHS, purified (Ni-NTA, SEC)

[5] = biological target: B1; test: cryo-EM structure; LGR4, RSPO2 and ZNRF3 co-expressed in Expi293F, complex solubilised in LMNG/CHS and purified by anti-DYKDDDDK resin (FLAG on LGR4) and SEC in 0.01% GDN; two complexes in one sample, 1:1:2 (3.2 Å) and 2:2:2 (3.5 Å); conditions: both partners purified

RSPO2-induced TOPFlash Wnt/β-catenin reporter activity in HEK293T cells (siRNA against LGR4 and LGR5; 5% Wnt3a-conditioned medium, 3 ng/mL RSPO2), against wild-type LGR4 [1]: 50 % reduction
Molecule: full-length human LGR4 (CD4 TMD): TMD (7-TM, aa526-822) replaced with that of CD4 (1-TM) (from UniProt Q9BXB1 25-525; Q9BXB1 823-951) (receptor)

Molecule: B1
binding result [2]: binds
stoichiometry N [3]: 2

stoichiometry N [4]: 1
binding result [5]: binds
B2: human RSPO2 (residues 20-143, Fu1-2 domains) (ligand, UniProt Q6UXX9 20-143, looked up)
chain: HCQGNRWRRSKRASYVSNPICKGCLSCSKDNGCSRCQQKLFFFLRREGMRQYGECLHSCPSGYYGHRAPDMNRCARCRIENCDSCFSKDFCTKCKVGFYLHRGRCFDECPDGFAPLEETMECVE
notes: human RSPO2, Fu1-2 domains, UniProt Q6UXX9; no cleavage is described; Codon-optimised synthetic DNA in pEZT-BM; also called R-spondin 2; source: Expi293F, secreted into the medium, purified (Ni-NTA, SEC); also co-transfected in Expi293F with LGR4 and ZNRF3 and co-purified with them
